Test results from PMC9878614.

Tests used:
F-actin = F-actin (UniProt P68133); details: cited from earlier work
[1] = target: F-actin (filamentous actin) (human (endogenous in HEK293)) (UniProt P60709); test: single-molecule localisation microscopy (direct-LIVE-PAINT, TIRF); live HEK293 cells transiently transfected with LifeAct-14-EGFP plasmid (4 ng or 20 ng DNA), imaged 24 h later at 37°C; 488 nm excitation, 50 ms exposure, 2000 frames; transient binding events read as single-molecule localisations

| Substance | Kd (F-actin) | localizations/s (4 ng DNA transfected) (localizations/s) [1] | localizations/s (20 ng DNA transfected) (localizations/s) [1] |
| --- | --- | --- | --- |
| LifeAct-14 1-14 (from UniProt Q08641) | 1200 nM | – | – |
| LifeAct-14-EGFP (from UniProt Q08641 1-14) (peptide) | – | 540 | 1860 |
